Test system: piggyBac transposase (PBase) (Trichoplusia ni)
Experiment: cell_activity

Which activity (% founders with transposition) (mouse, 26/31 founders, Act-PBase) does the source give for PB[K14-Tyr, Act-RFP] donor transposon here?
The activity (% founders with transposition) was 83.9.

With “PB[SV40-neo] donor transposon (PBL/PBR termini)” as the substance, how does the activity (human 293 cells, CMV-PBase helper, scale: fold G418-resistant clones vs donor alone) read?
The activity was 10.

“PB[PGK-neo] donor transposon (PBL/PBR termini)” was tested. Which activity (mouse W4/129S6 ES cells, Act-PBase helper, scale: fold drug-resistant clones vs donor alone) did it give?
The activity was 50.

Which activity (% transposon single-positive founders) (mouse pronuclear co-injection with Act-PBase, 10.4% without helper, precise excision in male germline shown with Prm1-PBase (p230)) does the source give for “PB[Act-RFP] donor transposon (PBL/PBR termini)” here?
The activity (% transposon single-positive founders) was 34.8.

From patent publication US20100154070
